Patent publication US20190300618A1 (Merck Sharp & Dohme, published 2019)
Each block holds one molecule with its values, some of them ahead of it.

Legend:
R37A [1] = target: T1, R37A; assay: flow cytometry, CHO-K1; sub-column 1 of 2
T1 construct: also called hCD27 R37A
T1 receptor: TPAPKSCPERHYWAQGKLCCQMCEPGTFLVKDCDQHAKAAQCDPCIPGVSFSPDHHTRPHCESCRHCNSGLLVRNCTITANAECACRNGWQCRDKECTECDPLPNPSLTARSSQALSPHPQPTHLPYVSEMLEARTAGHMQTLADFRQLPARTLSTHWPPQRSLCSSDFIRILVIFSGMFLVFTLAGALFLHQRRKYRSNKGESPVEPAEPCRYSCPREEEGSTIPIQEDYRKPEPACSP

I46A [2] = target: T2, I46A; assay: flow cytometry, CHO-K1; sub-column 1 of 2
T2 construct: also called hCD27 I46A
T2 receptor: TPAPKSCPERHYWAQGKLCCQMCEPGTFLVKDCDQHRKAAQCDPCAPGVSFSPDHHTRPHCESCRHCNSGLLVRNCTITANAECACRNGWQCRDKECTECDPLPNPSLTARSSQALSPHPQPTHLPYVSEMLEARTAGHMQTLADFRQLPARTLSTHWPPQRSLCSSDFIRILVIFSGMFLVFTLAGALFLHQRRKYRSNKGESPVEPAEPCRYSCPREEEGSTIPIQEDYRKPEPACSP

H60A [3] = target: T3, H60A; assay: flow cytometry, CHO-K1; sub-column 1 of 2
T3 construct: also called hCD27 H60A
T3 receptor: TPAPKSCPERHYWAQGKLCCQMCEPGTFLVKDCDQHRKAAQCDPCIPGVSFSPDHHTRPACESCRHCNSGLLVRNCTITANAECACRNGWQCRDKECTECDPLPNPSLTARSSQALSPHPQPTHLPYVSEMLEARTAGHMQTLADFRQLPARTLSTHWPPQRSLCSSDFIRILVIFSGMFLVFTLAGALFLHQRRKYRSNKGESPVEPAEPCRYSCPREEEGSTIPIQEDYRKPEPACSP

[4] = target: human CD27 (A59T), expressed on cells (human) (UniProt P26842); assay: cell-based or functional assay
[5] = target: human CD27 (wild type), expressed on cells (human) (UniProt P26842); assay: cell-based or functional assay
D32A = assay: flow cytometry, CHO-K1; sub-column 2 of 2
D43A = assay: flow cytometry, CHO-K1; sub-column 2 of 2
E9A = assay: flow cytometry, CHO-K1; sub-column 2 of 2
F28A = assay: flow cytometry, CHO-K1; sub-column 2 of 2
G16A = assay: flow cytometry, CHO-K1; sub-column 2 of 2
G89A = assay: flow cytometry, CHO-K1; sub-column 2 of 2
H36A = assay: flow cytometry, CHO-K1; sub-column 2 of 2
H60A [6] = assay: flow cytometry, CHO-K1; sub-column 2 of 2
I46A [7] = assay: flow cytometry, CHO-K1; sub-column 2 of 2
K17A = assay: flow cytometry, CHO-K1; sub-column 2 of 2
K31A = assay: flow cytometry, CHO-K1; sub-column 2 of 2
K38A = assay: flow cytometry, CHO-K1; sub-column 2 of 2
N88A = assay: flow cytometry, CHO-K1; sub-column 2 of 2
P44A = assay: flow cytometry, CHO-K1; sub-column 2 of 2
P8A = assay: flow cytometry, CHO-K1; sub-column 2 of 2
Q15A = assay: flow cytometry, CHO-K1; sub-column 2 of 2
Q41A = assay: flow cytometry, CHO-K1; sub-column 2 of 2
Q91A = assay: flow cytometry, CHO-K1; sub-column 2 of 2
R10A = assay: flow cytometry, CHO-K1; sub-column 2 of 2
R37A [8] = assay: flow cytometry, CHO-K1; sub-column 2 of 2
R87A = assay: flow cytometry, CHO-K1; sub-column 2 of 2
R93A = assay: flow cytometry, CHO-K1; sub-column 2 of 2
S63A = assay: flow cytometry, CHO-K1; sub-column 2 of 2
V30A = assay: flow cytometry, CHO-K1; sub-column 2 of 2
V49A = assay: flow cytometry, CHO-K1; sub-column 2 of 2
W13A = assay: flow cytometry, CHO-K1; sub-column 2 of 2
W90A = assay: flow cytometry, CHO-K1; sub-column 2 of 2
[9] = target: human CD27 (wild type), expressed on cells (human) (UniProt P26842); assay: flow cytometry MFI on CD8+ T cells from peripheral blood
[10] = target: Macaca mulatta CD27 (mmCD27), expressed on cells (Macaca mulatta (rhesus); same entry given for cynomolgus monkey); assay: flow cytometry MFI on CD4+ T cells from rhesus peripheral blood
[11] = target: Macaca mulatta CD27 (mmCD27), expressed on cells (Macaca mulatta (rhesus); same entry given for cynomolgus monkey); assay: flow cytometry MFI on CD8+ T cells from rhesus peripheral blood
Target sequence in this assay (chain, as listed by the source): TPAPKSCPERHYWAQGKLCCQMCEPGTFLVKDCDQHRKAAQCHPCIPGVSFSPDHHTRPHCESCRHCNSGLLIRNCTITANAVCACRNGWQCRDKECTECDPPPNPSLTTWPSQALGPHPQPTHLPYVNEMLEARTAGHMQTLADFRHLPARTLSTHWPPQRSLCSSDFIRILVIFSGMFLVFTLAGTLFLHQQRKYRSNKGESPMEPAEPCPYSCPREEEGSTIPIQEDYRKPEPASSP

[12] = target: human CD27 (wild type), expressed on cells (human) (UniProt P26842); assay: competition cell ELISA on CHO-hCD27; competitor detected: mouse hCD27.15 at 1 µg/ml

% of WT hCD27 binding (geo mean FITC) (R37A [1]): 115%
% of WT hCD27 binding (geo mean FITC) (I46A [2]): 129%
% of WT hCD27 binding (geo mean FITC) (H60A [3]): 167%
Molecule: 1A4 (mouse IgG1) (antibody)

Emax (fold change), NF-κB-luciferase reporter assay [4]: 1.3 fold change
Fold Change values at 2.5 µg/ml, NF-κB-luciferase reporter assay [4]: 1.23 fold change
Emax (fold change), NF-κB-luciferase reporter assay [5]: 1.48 fold change
Fold Change values at 2.5 µg/ml, NF-κB-luciferase reporter assay [5]: 1.34 fold change
NF-κB luciferase activity, 10 µg/ml fold change (FIG. 7A) [5]: 2.23 fold change
NF-κB luciferase activity, 10 µg/ml fold change (FIG. 7B) [5]: 1.73 fold change
% of WT hCD27 binding (geo mean FITC) (D32A): 59.6%
% of WT hCD27 binding (geo mean FITC) (D43A): 86.1%
% of WT hCD27 binding (geo mean FITC) (E9A): 120%
% of WT hCD27 binding (geo mean FITC) (F28A): 46.2%
% of WT hCD27 binding (geo mean FITC) (G16A): 101%
% of WT hCD27 binding (geo mean FITC) (G89A): 68.5%
% of WT hCD27 binding (geo mean FITC) (H36A): 80%
% of WT hCD27 binding (geo mean FITC) (H60A [6]): 110%
% of WT hCD27 binding (geo mean FITC) (I46A [7]): 69.7%
% of WT hCD27 binding (geo mean FITC) (K17A): 112%
% of WT hCD27 binding (geo mean FITC) (K31A): 120%
% of WT hCD27 binding (geo mean FITC) (K38A): 94.2%
% of WT hCD27 binding (geo mean FITC) (N88A): 119%
% of WT hCD27 binding (geo mean FITC) (P44A): 83.7%
% of WT hCD27 binding (geo mean FITC) (P8A): 73.1%
% of WT hCD27 binding (geo mean FITC) (Q15A): 127%
% of WT hCD27 binding (geo mean FITC) (Q41A): 66.3%
% of WT hCD27 binding (geo mean FITC) (Q91A): 115%
% of WT hCD27 binding (geo mean FITC) (R10A): 113%
% of WT hCD27 binding (geo mean FITC) (R37A [8]): 88%
% of WT hCD27 binding (geo mean FITC) (R87A): 7.8%
% of WT hCD27 binding (geo mean FITC) (R93A): 85.5%
% of WT hCD27 binding (geo mean FITC) (S63A): 121%
% of WT hCD27 binding (geo mean FITC) (V30A): 88.9%
% of WT hCD27 binding (geo mean FITC) (V49A): 92.8%
% of WT hCD27 binding (geo mean FITC) (W13A): 82.8%
% of WT hCD27 binding (geo mean FITC) (W90A): 10%
EC50 [9]: 1.3 nM
EC50 [10]: 1.58 nM
EC50 [11]: 1.92 nM
IC50 (read off the curve) [12]: 4 nM
Molecule: 1F5 hIgG1 (antibody)

% of WT hCD27 binding (geo mean FITC) (R37A [1]): 35%
% of WT hCD27 binding (geo mean FITC) (I46A [2]): 137%
% of WT hCD27 binding (geo mean FITC) (H60A [3]): 185%
Molecule: 9F4 (mouse IgG2a) (antibody)

% of WT hCD27 binding (geo mean FITC) (R37A [1]): 50.3%
% of WT hCD27 binding (geo mean FITC) (I46A [2]): 132%
% of WT hCD27 binding (geo mean FITC) (H60A [3]): 178%
B1: Antibody hCD27.131A (mouse parental 131A) (antibody, V domains shown)
VH: QIQLVQSGPELKKPGETVKISCKASGYTFTNYGMNWVKQAPGKGLKWMGWINTNTGEPTYAEEFKGRFAFSLETSATTAYLQINNLKNEDTATYFCAREGDAMDYWGQGTSVTVSS
VL: QIVLTQSPAIMSASPGEKVTMTCSASSSVSYMHWYQQKSGTSPKRWIYDTSKLASGVPARFSGSGSGTSYSLTISSMEAEDAATYYCQQWNSYPFTFGSGTKLEIK
notes: mouse IgG1; also called mouse hCD27.131A
